Laboratory results reported in patent US20200031927A1 (Memorial Sloan Kettering, published 2020).

What was measured:
soluble KIR3DL1*002-Fc [1] = target: T1, soluble KIR3DL1*002-Fc (human, UniProt P43629 22-338); test: SPR (BIACORE T-100)
T1 construct: also called KIR3DL1 allele 002; Allele 002; not shown: Fc domain

soluble KIR3DL1*033-Fc [2] = target: T2, soluble KIR3DL1*033-Fc (human, UniProt P43629 22-340); test: SPR (BIACORE T-100)
T2 construct: also called KIR3DL1 allele 033; Allele 033; not shown: Fc domain
T2 sequence (P43629 other isoform, or with tags, fused parts or gaps): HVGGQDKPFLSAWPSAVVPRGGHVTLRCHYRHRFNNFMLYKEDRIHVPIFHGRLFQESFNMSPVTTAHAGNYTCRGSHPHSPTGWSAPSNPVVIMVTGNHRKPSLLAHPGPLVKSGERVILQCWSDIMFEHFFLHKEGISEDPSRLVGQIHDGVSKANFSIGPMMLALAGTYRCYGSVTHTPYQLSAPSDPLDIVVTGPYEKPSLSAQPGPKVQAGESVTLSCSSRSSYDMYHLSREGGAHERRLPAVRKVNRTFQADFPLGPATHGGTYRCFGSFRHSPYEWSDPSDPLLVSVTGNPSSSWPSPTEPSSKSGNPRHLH

soluble KIR3DL1*001-Fc [3] = target: T3, soluble KIR3DL1*001-Fc (human, UniProt P43629 22-340); test: SPR (BIACORE T-100)
T3 construct: also called KIR3DL1 allele 001; KIR3DL1 allele-001 antigen; not shown: Fc domain

soluble KIR3DL1*002-Fc [4] = target: T1, soluble KIR3DL1*002-Fc; test: BLI (ForteBio QK), hIgG1
[5] = target: T4, soluble KIR3DL1*007/015-Fc (human, UniProt P43629 22-338); test: BLI (ForteBio QK), hIgG1
T4 construct: also called KIR3DL1 allele 007/015; CD158e allele 007/015; not shown: Fc domain
T4 sequence (P43629 other isoform, or with tags, fused parts or gaps): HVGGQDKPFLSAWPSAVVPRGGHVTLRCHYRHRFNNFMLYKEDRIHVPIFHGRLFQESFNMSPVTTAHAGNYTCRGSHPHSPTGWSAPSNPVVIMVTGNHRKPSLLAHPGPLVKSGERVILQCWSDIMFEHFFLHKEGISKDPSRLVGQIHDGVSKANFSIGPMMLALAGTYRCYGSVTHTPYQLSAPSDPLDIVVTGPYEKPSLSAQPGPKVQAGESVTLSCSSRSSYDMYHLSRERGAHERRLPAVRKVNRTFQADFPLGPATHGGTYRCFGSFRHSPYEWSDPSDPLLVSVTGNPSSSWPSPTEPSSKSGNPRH

soluble KIR3DL1*020-Fc = target: T5, soluble KIR3DL1*020-Fc (human, UniProt P43629 22-339); test: BLI (ForteBio QK), hIgG1
T5 construct: also called KIR3DL1 allele 020; CD158e allele 020; not shown: Fc domain
T5 sequence (P43629 other isoform, or with tags, fused parts or gaps): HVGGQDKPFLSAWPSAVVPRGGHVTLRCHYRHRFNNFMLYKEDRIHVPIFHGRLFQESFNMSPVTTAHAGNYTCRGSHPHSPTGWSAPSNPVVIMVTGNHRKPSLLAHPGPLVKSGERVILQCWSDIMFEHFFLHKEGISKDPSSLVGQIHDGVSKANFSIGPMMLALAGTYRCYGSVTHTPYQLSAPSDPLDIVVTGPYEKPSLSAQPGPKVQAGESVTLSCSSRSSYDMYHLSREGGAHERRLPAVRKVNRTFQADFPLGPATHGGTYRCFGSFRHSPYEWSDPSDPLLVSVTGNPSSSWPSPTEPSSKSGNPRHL

soluble KIR3DL1*033-Fc [6] = target: T2, soluble KIR3DL1*033-Fc; test: BLI (ForteBio QK), hIgG1
soluble KIR3DL1*001-Fc [7] = target: T3, soluble KIR3DL1*001-Fc; test: BLI (ForteBio QK), hIgG1
soluble KIR3DL1*002-Fc [8] = target: T1, soluble KIR3DL1*002-Fc; test: SPR (BIACORE T-100), kinetics
soluble KIR3DL1*001-Fc [9] = target: T3, soluble KIR3DL1*001-Fc; test: BLI (Forte-Bio), partial fit, IgG
soluble KIR3DL1*002-Fc [10] = target: T1, soluble KIR3DL1*002-Fc; test: SPR (BIACORE T-100), kinetics; Biacore T-100, allele 002
soluble KIR3DL1*001-Fc [11] = target: T3, soluble KIR3DL1*001-Fc; test: BLI (ForteBio QK), hIgG1; ForteBio, hIgG1, allele 001 (Table 2)

B1: ET160-73 (antibody, human IgG1, V domains shown)
VH: QVQLVQSGAEVKKPGESLKISCKGSGYSFTSYWIGWVRQMPGKGLEWMGIIYPGDSDTRYSPSFQGQVTISADKSISTAYLQWSSLKASDTAMYYCARGREQLWLDGMDVWGQGTTVTVSS
VL: DVVMTQSPLSLPVTLGQPASISCRSTQSLVHSDGNTYLNWFQQRPGQSPRRLIYGVSNRDFGVPDRFSASGSGTDFTLKINRVEAEDVGVYYCMQGTHWPLTFGQGTKVEIKR
notes: Tested as human IgG1 (hIgG1), kappa light chain
Kd (soluble KIR3DL1*002-Fc [1]): 124 nM
Kd (soluble KIR3DL1*033-Fc [2]): 55.6 nM
Kd (soluble KIR3DL1*001-Fc [3]): 136 nM
Kd (soluble KIR3DL1*002-Fc [4]): 16.3 nM
Kd [5]: 16.1 nM
Kd (soluble KIR3DL1*020-Fc): 15.7 nM
Kd (soluble KIR3DL1*033-Fc [6]): 14.4 nM
Kd (soluble KIR3DL1*001-Fc [7]): 21.2 nM
Kd (soluble KIR3DL1*002-Fc [8]): 124 nM
koff (soluble KIR3DL1*002-Fc [8]): 0.00481 s⁻¹
kon (soluble KIR3DL1*002-Fc [8]): 38900 M⁻¹ s⁻¹
Kd (soluble KIR3DL1*001-Fc [9]): 21.2 nM
koff (soluble KIR3DL1*001-Fc [9]): 0.00302 s⁻¹
kon (soluble KIR3DL1*001-Fc [9]): 143000 M⁻¹ s⁻¹

B2: ET160-61 (antibody, human IgG1, V domains shown)
VH: QVQLVESGGGLVQPGRSLRLSCAASGFTFDDYAMHWVRQAPGKGLEWVSGISWNSGSIGYADSVKGRFTISRDNAKNSLYLQMNSLRAEDTAVYYCASSLRYFEWPIDYWGQGTLVTVSS
VL: NFMLTQPLSVSESPGKTVTISCTANGGSLASKYVQWFQQRPGSSPTTVIYDDNLRPSGVPDRFSGSIDTSSNSAALTISGLKTEDEADYYCQSYDNSSVVFGGGTKLTVLG
notes: Tested as human IgG1 (hIgG1), lambda light chain
Kd (soluble KIR3DL1*002-Fc [1]): 27.7 nM
Kd (soluble KIR3DL1*033-Fc [2]): 10.8 nM
Kd (soluble KIR3DL1*001-Fc [3]): 45.9 nM
Kd (soluble KIR3DL1*002-Fc [4]): 21.7 nM
Kd [5]: 4.1 nM
Kd (soluble KIR3DL1*020-Fc): 19.4 nM
Kd (soluble KIR3DL1*033-Fc [6]): 22.7 nM
Kd (soluble KIR3DL1*001-Fc [7]): 15.1 nM
Kd (soluble KIR3DL1*002-Fc [8]): 27.7 nM
koff (soluble KIR3DL1*002-Fc [8]): 0.00232 s⁻¹
kon (soluble KIR3DL1*002-Fc [8]): 84000 M⁻¹ s⁻¹
Kd (soluble KIR3DL1*001-Fc [9]): 15.1 nM
koff (soluble KIR3DL1*001-Fc [9]): 0.00193 s⁻¹
kon (soluble KIR3DL1*001-Fc [9]): 127000 M⁻¹ s⁻¹

B3: ET160-42 (antibody, human IgG1, V domains shown)
VH: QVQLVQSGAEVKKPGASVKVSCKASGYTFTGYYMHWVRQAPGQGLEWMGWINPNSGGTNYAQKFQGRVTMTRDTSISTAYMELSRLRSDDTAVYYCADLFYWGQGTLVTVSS
VL: QSALTQPASVSGSPGQSITISCTGTSSDVGGYNYVSWYQQHPGKAPKLMIYDVSNRPSGVSNRFSGSKSGNTASLTISGLQAEDEADYYCSSYTSSNTLVFGTGTKVTVLG
notes: Tested as human IgG1 (hIgG1), lambda light chain; Clone from a human scFv phage display library
Kd (soluble KIR3DL1*002-Fc [1]): 93.5 nM
Kd (soluble KIR3DL1*033-Fc [2]): 75.2 nM
Kd (soluble KIR3DL1*001-Fc [3]): 89.5 nM
Kd (soluble KIR3DL1*002-Fc [4]): 8.5 nM
Kd [5]: 8.4 nM
Kd (soluble KIR3DL1*020-Fc): 10.1 nM
Kd (soluble KIR3DL1*033-Fc [6]): 10.3 nM
Kd (soluble KIR3DL1*002-Fc [8]): 93.5 nM
koff (soluble KIR3DL1*002-Fc [8]): 0.0171 s⁻¹
kon (soluble KIR3DL1*002-Fc [8]): 183000 M⁻¹ s⁻¹
koff (soluble KIR3DL1*001-Fc [9]): 0.00221 s⁻¹
kon (soluble KIR3DL1*001-Fc [9]): 172000 M⁻¹ s⁻¹
Kd (soluble KIR3DL1*002-Fc [10]): 93.5 nM
Kd (soluble KIR3DL1*001-Fc [11]): 12.9 nM

B4: ET160-74 (antibody, human IgG1, V domains shown)
VH: QVQLVQSGAEVKKPGSSVKVSCKASGGTFSSYAISWVRQAPGQGLEWMGWMNPNSGNTGYAQKFQGRVTMTRNTSISTAYMELSSLRSEDTAVYYCARYSFHLDGWGQGTLVTVSS
VL: QSVLTQPPSVSAAPGQKVTISCSGSSSNVGNNYVSWYQQVPGTAPKLLIYDNNRRPSGIPDRFSGSKSGTSATLGITGLQTGDEADYYCGTWDNSLRVELFGGGTKVTVLG
notes: as for B2
Kd (soluble KIR3DL1*002-Fc [1]): 108 nM
Kd (soluble KIR3DL1*033-Fc [2]): 62.2 nM
Kd (soluble KIR3DL1*001-Fc [3]): 11.9 nM
Kd (soluble KIR3DL1*002-Fc [4]): 8.6 nM
Kd [5]: 10.1 nM
Kd (soluble KIR3DL1*020-Fc): 11.2 nM
Kd (soluble KIR3DL1*033-Fc [6]): 11 nM
Kd (soluble KIR3DL1*001-Fc [7]): 13.3 nM
Kd (soluble KIR3DL1*002-Fc [8]): 108 nM
koff (soluble KIR3DL1*002-Fc [8]): 0.0112 s⁻¹
kon (soluble KIR3DL1*002-Fc [8]): 103000 M⁻¹ s⁻¹
Kd (soluble KIR3DL1*001-Fc [9]): 13.3 nM
koff (soluble KIR3DL1*001-Fc [9]): 0.00161 s⁻¹
kon (soluble KIR3DL1*001-Fc [9]): 122000 M⁻¹ s⁻¹

B5: ET160-72 (antibody, human IgG1, V domains shown)
VH: QVQLVQSGGGVVRSGGSLRLTCAASGFTFGDYGMSWVRQAPGKGLEWVSGINWNGGGTGYADSVKGRFTISRDNAKDSLYLQMNSLRAEDTALYYCARVWGCGSTTCYEGADDAFDIWGQGTMVTVSS
VL: LPVLTQPPSISGAPRQRVTISCSGARSNIGNNAVNWYQQVPGEAPKLLIFYDDQQPSGISGRFSGSKSGTSASLAISGLQSEDEADYYCAAWDDSLNGWVFGGGTKLTVLG
notes: as for B2
Kd (soluble KIR3DL1*002-Fc [1]): 316 nM
Kd (soluble KIR3DL1*033-Fc [2]): 138 nM
Kd (soluble KIR3DL1*001-Fc [3]): 182 nM
Kd (soluble KIR3DL1*002-Fc [4]): 11.6 nM
Kd [5]: 11.6 nM
Kd (soluble KIR3DL1*020-Fc): 11.4 nM
Kd (soluble KIR3DL1*033-Fc [6]): 15.4 nM
Kd (soluble KIR3DL1*001-Fc [7]): 15.8 nM
Kd (soluble KIR3DL1*002-Fc [8]): 316 nM
koff (soluble KIR3DL1*002-Fc [8]): 0.0159 s⁻¹
kon (soluble KIR3DL1*002-Fc [8]): 50500 M⁻¹ s⁻¹
Kd (soluble KIR3DL1*001-Fc [9]): 15.8 nM
koff (soluble KIR3DL1*001-Fc [9]): 0.00212 s⁻¹
kon (soluble KIR3DL1*001-Fc [9]): 134000 M⁻¹ s⁻¹

B6: ET160-77 (antibody, human IgG1, V domains shown)
VH: EVQLVETGGGLVKPGGSLRLSCAASGFTFSDYYMSWIRQAPGKGLEWVSYISSSSSYTNYADSVKGRFTISRDNAKNSLYLQMNSLRAEDTAVYYCAREGIAAADAFDIWGQGTMVTVSS
VL: SYELTQPPSVSVAPGQAATITCAGDNIESKSVNWYQQKPGQAPVLVVYDDTVRPSGIPERFSGSNSGNPATLTISRSEAGDEADYYCQVWDNRRDHVVFGGGTKVTVLG
notes: as for B2
Kd (soluble KIR3DL1*002-Fc [1]): 197 nM
Kd (soluble KIR3DL1*033-Fc [2]): 48.3 nM
Kd (soluble KIR3DL1*001-Fc [3]): 53.1 nM
Kd (soluble KIR3DL1*002-Fc [4]): 10.9 nM
Kd [5]: 11.4 nM
Kd (soluble KIR3DL1*020-Fc): 10.5 nM
Kd (soluble KIR3DL1*033-Fc [6]): 13.1 nM
Kd (soluble KIR3DL1*001-Fc [7]): 13.9 nM
Kd (soluble KIR3DL1*002-Fc [8]): 197 nM
koff (soluble KIR3DL1*002-Fc [8]): 0.00987 s⁻¹
kon (soluble KIR3DL1*002-Fc [8]): 50000 M⁻¹ s⁻¹
Kd (soluble KIR3DL1*001-Fc [9]): 13.9 nM
koff (soluble KIR3DL1*001-Fc [9]): 0.00222 s⁻¹
kon (soluble KIR3DL1*001-Fc [9]): 160000 M⁻¹ s⁻¹
